Assay [1] relates to Rat-2 cells. In words: Rat-2 cell migration/invasion in Matrigel, DAPI nuclear staining. In kind it is cell-based. Here is the method:
Cell migration/invasion in Matrigel was documented at 200× magnificent after 24 hour treatment and quantitated using DAPI nuclear staining (results shown in FIG. 19A and repeat results in FIGS. 26B and 26C; DAPI pictures are shown in FIG. 19D).
Similar to FMOD (whole protein), the effect of FMOD peptides and/or TGF-β on cell migration was also evaluated by scratching method (FIGS. 18C and 25D). At the same time, cell migration/invasion in Matrigel was documented at 100× magnificent after 24 hour treatment and quantitated using DAPI nuclear staining (100 rather than 200× magnification was used because one group's invasion is quite low) (see the results in FIG. 20A and DAPI pictures in FIG. 20B). Passage 18 Rat-2 cells (20,000 cells/well) were used for the test under the treatment of 100 pM TGF-β1 (SEQ ID NO:64)/133 (SEQ ID NO:66) with/without 200 nM FMOD-F07-40C in DMEM-0.5% FBS.
Passage 18 Rat-2 cells (20,000 cells/well) were used for the test under the treatment of 100 pM TGF-β1/β3 with/without 200 nM FMOD-F06-40C in DMEM-0.5% FBS (FIG. 20C).

Assay [2] relates to Rat-2 (rat fibroblast cell line) cells. In words: Rat-2 cell proliferation, Click-iT Microplate Assay. The format is cell-based. To be noted: FMOD combined with 100 pM TGF-β1, 48 hours; FIG. 16. Here is the method:
2000 cell/well passage 18 Rat-2 (rat fibroblast cell line) cells were seeded in 96-well plates with 200 μl DMEM-10% FBS for 6 hours, followed by overnight serum starving with 200 μl DMEM-0.5% FBS. 200 μl treatment medium, DMEM-0.5% FBS harboring different concentration of FMOD (SEQ ID NO:1), FMOD-F07-C40 peptide with/without 100 pM TGF-βI (SEQ ID NO:64), was added to the well and refreshed on the second day. After 48 hours treatment, proliferation of Rat-2 cells was evaluated by Click-iT® Microplate Assay (Invitrogen).

Assay [3] has as its target T1, TGF-β1 (Homo sapiens, UniProt P01137). The experiment in a line: TGF-β1 binding to biotinylated FMOD/FMOD peptides on avidin resin; non-bound TGF-β read by Mv1Lu growth inhibition (MTT). To be noted: ratios 1:1, 10:1, 100:1, 1000:1 to TGF-β; overnight 4° C.; FIG. 13. As to the method:
(§1) FMOD (whole protein) (SEQ ID NO:1), FMOD peptides and control protein BSA were biotinylated. While, the biotinylated proteins and peptides were bound to commercial available Piece Monomeric Avidin UltraLink Resin (Piece). The amounts of each test peptides/proteins are 1:1, 10:1, 100:1 and 1000:1 to TGF-βs, respectively. After washing out the non-bound residues, appropriate amount TGF-βs (based on the primary test assay) were added to the resin at 4° C. After overnight binding, non-bound TGF-βs were collected, followed by filter sterilization. Then, the TGF-βs residue were diluted 100 times in DEME-0.5% FBS to ensure the concentration was located in the linear region of TGF-βs on Mv1Lu proliferate inhibition.
(§2) Diluted TGF-βs was added to overnight serum-starved Mv1Lu, and fresh TGF-βs media were added for another 24 hour before MTT assay. Samples with no TGF-βs added were employed as controls.

Assay [4] has as its system Rat-2 cells. In words: H&E morphology of Rat-2 cells. The format is cell-based. Here is the method:
Exemplary tests were performed to better delineate cell morphology.

The target in the next assay is T2, TGF-β2 (Homo sapiens, UniProt P61812).
T2 sequence (P61812 303-414 limits assumed): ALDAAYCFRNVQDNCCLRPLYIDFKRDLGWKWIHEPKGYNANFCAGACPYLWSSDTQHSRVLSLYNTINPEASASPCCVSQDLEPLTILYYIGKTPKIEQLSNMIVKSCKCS
The experiment in a line: TGF-β2 binding to biotinylated FMOD/FMOD peptides on avidin resin; non-bound TGF-β read by Mv1Lu growth inhibition (MTT). The conditions noted are these: ratios 1:1, 10:1, 100:1, 1000:1 to TGF-β; FIG. 14. Here is the method: as §1, §2

The test system of assay [5] is α-smooth muscle actin (α-SMA) expression. The experiment in a line: α-SMA expression staining. The format is cell-based. As to the method: Exemplary tests on effects of FMOD and TGF-β or FMOD peptides and TGF-β on α-SMA expression were performed and shown in FIGS. 25A-25D. Expression levels of α-SMA, which is a marker for the transition of fibroblasts to myofibroblasts, were measured and presented in staining in these figures.

Another assay deals with T3, TGF-β3 (Homo sapiens, UniProt P10600).
T3 sequence (P10600 301-412 limits assumed): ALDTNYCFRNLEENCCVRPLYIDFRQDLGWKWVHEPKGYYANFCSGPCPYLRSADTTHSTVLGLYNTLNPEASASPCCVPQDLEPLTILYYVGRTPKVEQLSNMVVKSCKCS
In words: TGF-β3 binding to biotinylated FMOD/FMOD peptides on avidin resin; non-bound TGF-β read by Mv1Lu growth inhibition (MTT). Here is the method:
as §1, §2

In assay [6] the target is T1, TGF-β1. The experiment in a line: ELISA analysis of binding with TGF-β1. The conditions noted are these: BSA as negative control; FIG. 3. From the text:
Bovine serum albumin (BSA) was used as negative control.
SUMO-CAT from the recombinant bacteria harboring control plasmid pET_SUMO/CAT was used as negative control. To the knowledge of inventors, the TGF-binding sites within FMOD have not been reported.

For assay [7], the system named is connective tissue growth factor (CTGF) expression. In words: CTGF expression and cell aggregation in Rat-2 cells, confocal staining. The format is cell-based. To be noted: for CTGF expression: 48 h. Here is the method:
Results of exemplary tests on each of FMOD and FMOD-P, alone or in combination with TGF-β on CTGF expression are shown in FIGS. 28A-28D. In these tests, 4,000 cells/well passage 18 Rat-2 cells were seeded in 8-well chamber slices in DMEM medium with 10% FBS. After 6 h adhesion, fresh DMEM medium with 0.5% FBS was employed for overnight serum starvation and then treatment media added. Treatment media were changed after 24 h. Cells were fixed and staining at 48 h. Photos were captured at 630× magnifications using a confocal microscope. In these figures, the cells were stained for CTGF (connective tissue growth factor, a factor involved in cell proliferation, migration and matrix production) or DAPI (4′,6-diamidino-2-phenylindole a fluorescent stain that binds strongly to DNA-used for nuclear staining). Merged images showing both CTGF and DAPI staining are also shown.

Where [8] appears, read: 100 pM TGF-β1 and 200 nM FMOD combined treatment.
Where [9] appears, read: 100 pM TGF-β1+200 nM Fibromodulin, FIG. 25D.

T1 sequence (P01137 279-390 limits assumed): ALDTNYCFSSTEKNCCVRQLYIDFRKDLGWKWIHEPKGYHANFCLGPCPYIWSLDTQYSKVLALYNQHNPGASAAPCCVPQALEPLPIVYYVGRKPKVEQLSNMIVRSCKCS

B1: FMOD: recombinant human fibromodulin whole protein (SEQ ID NO:1) produced in CHO-K1 (protein, listed as Homo sapiens)
chain: MQWTSLLLLAGLFSLSQAQYEDDPHWWFHYLRSQQSTYYDPYDPYPYETYEPYPYGVDEGPAYTYGSPSPPDPRDCPQECDCPPNFPTAMYCDNRNLKYLPFVPSRMKYVYFQNNQITSIQEGVFDNATGLLWIALHGNQITSDKVGRKVFSKLRHLERLYLDHNNLTRMPGPLPRSLRELHLDHNQISRVPNNALEGLENLTALYLQHNEIQEVGSSMRGLRSLILLDLSYNHLRKVPDGLPSALEQLYMEHNNVYTVPDSYFRGAPKLLYVRLSHNSLTNNGLASNTFNSSSLLELDLSYNQLQKIPPVNTNLENLYLQGNRINEFSISSFCTVVDVVNFSKLQVLRLDGNEIKRSAMPADAPLCLRLASLIEI
As for B1, the “cell migration/invasion in Matrigel” value is on record as “induced significant migration” in the assay with Rat-2 cells [1] (200 nM combined with 100 pM TGF-β1, 24 hour treatment); “decreased TGF-β3 mediated inhibition of migration” in the assay on Rat-2 cells [1] (200 nM combined with 100 pM TGF-β3, 24 hour treatment); “induced Rat-2 moderate migration” with Rat-2 cells [1] (alone (200 nM FMOD or peptide, or 100 pM TGF-β), 24 hour treatment). Besides, in assay [2], the fibroblast proliferation entry is given as “significantly increased fibroblast proliferation”. In addition, the TGF-β1 binding entry with TGF-β1 [3] is “TGF-β1 binding that also increased with higher FMOD protein ratios”. Further, the “cell density (H&E)” value in the assay on Rat-2 cells [4] (setting [8]) is listed as “significantly increased cell density”. In the assay on Rat-2 cells [4] (setting [8]), the nodule size result is on record as “increased nodule size”. For the same molecule, in the assay with Rat-2 cells [4] (100 pM TGF-β1 and 200 nM FMOD combined treatment, 8-well chamber slides), the nodule number result is “about four”. Further, the “cell morphology (H&E)” value in the assay on Rat-2 cells [4] (200 nM FMOD alone, FIG. 22) is recorded as “flat, spread-out Rat-2 cell morphology”. Further, in the assay with Rat-2 cells [4] (mono-treatment (200 nM FMOD or 100 pM TGF-β1), relative to controls), the “cell aggregation/density (H&E)” value is “lower cell aggregation/density relative to controls”. Also, the TGF-β2 binding entry with TGF-β2 is “TGF-β2 binding that also expectedly increased with higher FMOD protein ratios”. Also, the cell density/cell aggregation result in [5] (setting [9]) was “increased cell density/cell aggregation”. Also, the α-SMA staining entry in assay [5] (setting [9]) is recorded as “significantly increased α-SMA staining”; in assay [5] (mono-treatment (200 nM FMOD or 100 pM TGF-β1), FIGS. 25B, 25C) it was “minimal α-SMA staining”. In the assay with TGF-β3 (comparison of FIGS. 13-15), the “rank order of binding to TGF-β isoforms” value is on record as “TGF-β1>TGF-β2>TGF-β3”. The TGF-β3 binding entry with TGF-β3 (ratios 1:1, 10:1, 100:1, 1000:1 to TGF-β, FIG. 15) is recorded as “TGF-β3 binding that also expectedly increased with higher FMOD protein ratios up to 1:100”. The “binding with TGF-β1 in ELISA assay” value with TGF-β1 [6] is “able to bind with TGF-β1”. Besides, the cell aggregation result in assay [7] (100 pM TGF-β1+200 nM FMOD) is given as “significant cell aggregation”. Moreover, the CTGF expression result in assay [7] (100 pM TGF-β1+200 nM FMOD, FIG. 21D) is given as “significantly higher CTGF expression”; in assay [7] (mono-treatment (200 nM FMOD or 100 pM TGF-β1), FIGS. 21B, 21C), “Minimal CTGF expression”. The cell morphology result is “more flat and spread out when compared to the control group” in assay [7] (200 nM FMOD alone, compared to the control group); “much more densely packed, aggregated cells with a significant degree of nodule formation” in assay [7] (TGF-β1/FMOD combo-treatment, FIG. 24). In assay [7] (TGF-β1/FMOD combo-treatment relative to TGF-β1 mono-treatment, FIG. 24), the “CTGF expression (green fluorescence)” value was “significantly increases expression of CTGF”.

The values are drawn from patent US20160304573A1, “FIBROMODULIN PEPTIDE” (The Regents of the University of California, priority 2010, published 2016).
